{"source": "paper PMC8123127", "about": "“Structural Bases for the Synergistic Inhibition of Human Thymidylate Synthase and Ovarian Cancer Cell Growth by Drug Combinations” (Cancers, 2021)", "proteins": {"B1": {"name": "human thymidylate synthase (hTS) (Homo sapiens) (protein)", "chain": "MPVAGSELPRRPLPPAAQERDAEPRPPHGELQYLGQIQHILRCGVRKDDRTGTGTLSVFGMQARYSLRDEFPLLTTKRVFWKGVLEELLWFIKGSTNAKELSSKGVKIWDANGSRDFLDSLGFSTREEGDLGPVYGFQWRHFGAEYRDMESDYSGQGVDQLQRVIDTIKTNPDDRRIIMCAWNPRDLPLMALPPCHALCQFYVVNSELSCQLYQRSGDMGLGVPFNIASYALLTYMIAHITGLKPGDFIHTLGDAHIYLNHIEPLKIQLQREPRPFPKLRILRKVEKIDDFKAEDFQIEGYNPHPTIKMEMAV", "notes": "His6-tag protein (non-cleavable N-terminal His6-tag)"}}, "key": {"purified protein [1]": {"substrate": "Nc1nc2c(c(=O)[nH]1)N1CN(c3ccc(C(=O)N[C@@H](CCC(=O)O)C(=O)O)cc3)CC1CN2", "test": "purified protein", "settings": "dUMP cofactor site in the catalytic pocket; varied: cofactor"}, "purified protein [2]": {"substrate": "O=c1ccn([C@H]2C[C@H](O)[C@@H](COP(=O)(O)O)O2)c(=O)[nH]1", "test": "purified protein", "assay_type": "biochemical, Homo sapiens", "settings": "mTHF substrate site in the catalytic pocket"}}, "data": [{"protein": "B1", "values": [{"measurement": "Km", "setting": "purified protein [1]", "result": 5, "unit": "µM"}, {"measurement": "Km", "setting": "purified protein [2]", "result": 10, "unit": "µM"}]}]}
